This note sets out measurements from PMC7948536.

Some results are limits rather than exact numbers.

In assay [1] the target is E3 SCF^βTrCP (neddylated; Skp1–βTrCP with Nedd8–ROC1–CUL1) (UniProt P63208).
Assay [2] shares this target. The source holds these as a separate data set.
Assay [3] has the same target. The source holds these as a separate data set.

“IκBα (EE)–Ub (E64C)–I647 (from UniProt P25963 1-20; P0CG48 1-74; P25963 23-54)” had an FRET IκBα diubiquitination in test tube, time course to 10 min: IκBα–Ub2 product by gel, FRET signal rising alike (Fig. 2A) in assay [1] above 30%. In assay [2], this substance had a real-time FRET IκBα diubiquitination, 30 °C, 30 min; conversion of substrate by gel analysis (Fig. 3A, B) of 85%. In assay [3], this substance returned a real-time FRET IκBα diubiquitination under single-round turnover condition (preformed complexes treated with apyrase) (Fig. 4) of 20%.
